# Assay results reported in patent US20060088847A1 (TRUSTEES OF COLUMBIA UNIVERSITY IN THE CITY OF NEW YORK, published 2006).
# B1: GST-C-ARF, the C terminus of ARF (65-132) (other, UniProt Q8N726 65-132, looked up)
# chain: GHDDGQRPSGGAAAAPRRGAQLRRPRHSHPTRARRCPGGLPGHAGGAAPGRGAAGRARCLGPSARGPG
# notes: range 65-132; also called CARF-(65-132); not shown: glutathione S-transferase (GST) tag of the pGEX vector
# Target: in vitro translated 35S-labeled ARF-BP1 (1015-4374) (human, UniProt Q7Z6Z7 1015-4374, 35S-labeled (in vitro translation))
# Assay: GST pull-down with 35S-labeled in vitro translated protein
binder,measurement,value
B1,binding result,no binding
